Assay [1] addresses native bombesin/GRP receptor of AR42J rat pancreas cells (rat) (UniProt P52500). Nature of the assay: radioligand displacement, AR42J rat pancreas cell membranes, tracer [125I-Tyr4]bombesin.
Assay [2] has as its target human somatostatin receptor subtype hSSTR-2 (human) (UniProt P30874). Nature of the assay: radioligand displacement, CHO-K1 hSSTR-2 membranes, tracer m39.
Assay [3] concerns the target human somatostatin receptor subtype hSSTR-3 (human) (UniProt P32745). The experiment in a line: radioligand displacement, CHO-K1 hSSTR-3 membranes, tracer [125I-Tyr11]SRIF-14.
For assay [4], the target named is human somatostatin receptor subtype hSSTR-5 (human) (UniProt P35346). Nature of the assay: radioligand displacement, CHO-K1 hSSTR-5 membranes, tracer m40.
Sequence of human somatostatin receptor subtype hSSTR-5 (human) (P35346 whole entry): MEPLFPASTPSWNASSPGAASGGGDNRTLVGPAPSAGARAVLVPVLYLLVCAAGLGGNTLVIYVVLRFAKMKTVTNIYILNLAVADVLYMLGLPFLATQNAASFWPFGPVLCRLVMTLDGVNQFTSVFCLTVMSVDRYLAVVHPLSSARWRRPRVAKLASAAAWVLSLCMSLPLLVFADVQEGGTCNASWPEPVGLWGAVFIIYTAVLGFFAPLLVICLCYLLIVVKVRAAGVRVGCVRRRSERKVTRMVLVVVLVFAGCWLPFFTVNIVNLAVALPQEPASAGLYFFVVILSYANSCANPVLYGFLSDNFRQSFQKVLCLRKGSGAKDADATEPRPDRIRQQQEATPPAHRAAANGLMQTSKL
Assay [5] has as its target T1, native bombesin/GRP receptor of AR42J rat pancreas cells (rat, UniProt P52500 1-384).
T1 construct: whole, on cells; Used as membrane homogenate of AR42J cells; also called bombesin receptor
The experiment in a line: radioligand displacement, AR42J rat pancreas cell membranes, tracer [125I-Tyr4]bombesin. How it is done:
The homogenates were washed twice by centrifugation (39,000 g/10 minutes) and the final pellets were resuspended in 50 mM Tris-HCl containing 2.5 mM MgCl₂ and 0.1% BSA. For the assay, aliquots of membrane homogenate (0.4 ml) were incubated with 0.05 nM [¹²⁵I-Tyr4]bombesin (2200 Ci/mmol) (New England Nuclear®, Boston, Mass., U.S.A.) with and without 0.05 ml of unlabeled competing test peptides. After a 30 minute incubation period at 4° C., the bound [¹²⁵I-Tyr4]bombesin was separated from the free bombesin by rapid filtration through GF/B filters (Brandel®, Gaithersburg, Md., U.S.A.) which had been previously soaked in 0.3% polyethyleneimine. The filters were then washed three times with 5-ml aliquots of ice-cold 50 mM Tris-HCl. The bound radioactivity trapped on the filters was counted by gamma spectrometry (Wallac LKB®, Gaithersburg, Md., U.S.A.). Specific binding was defined as the total [¹²⁵I-Tyr4]bombesin bound minus that bound in the presence of 1000 nM bombesin (Bachem®, Torrence, Calif., U.S.A>).

Numbered stars: 1 amine (or outer) side, 2 acyl side, 3 side chain; on linkers, the order of the positions; unused ones are H or OH. Bridge positions count the residues as written; N and C are the ends. Square brackets hold non-standard residues; d marks the D form. Pipz(1-CH2CO,4-CH2CH2NH) = O=C(CN1CCN(CCN[*:1])CC1)[*:2]; Tyr(3-I) = N[C@@H](Cc1ccc(O)c(I)c1)C(=O)O; Suc = O=C(CCC(=O)[*:2])[*:1]; Nle = CCCC[C@H](N)C(=O)O; rvGly = not defined here; Glut = not defined here; Abu = CC[C@H](N)C(=O)O; Apn = not defined here; AEEA = NCCOCCOCC(=O)O; Ahx = NCCCCCC(=O)O; GABA = NCCCC(=O)O; βAla = NCCC(=O)O

T1 sequence (P52500 whole entry): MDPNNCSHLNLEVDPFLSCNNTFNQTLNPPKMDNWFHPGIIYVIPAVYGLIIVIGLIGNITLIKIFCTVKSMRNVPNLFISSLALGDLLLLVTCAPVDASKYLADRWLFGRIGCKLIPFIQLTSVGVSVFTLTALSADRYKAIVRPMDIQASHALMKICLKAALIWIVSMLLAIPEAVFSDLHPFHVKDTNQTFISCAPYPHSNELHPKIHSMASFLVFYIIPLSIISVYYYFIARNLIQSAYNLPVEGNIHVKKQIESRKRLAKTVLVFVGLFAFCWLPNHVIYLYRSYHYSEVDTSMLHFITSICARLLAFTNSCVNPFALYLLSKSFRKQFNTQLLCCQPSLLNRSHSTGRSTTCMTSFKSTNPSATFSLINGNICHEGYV
Sequence of native bombesin/GRP receptor of AR42J rat pancreas cells (rat) (P52500 whole entry): as above
Sequence of human somatostatin receptor subtype hSSTR-2 (human) (P30874 whole entry): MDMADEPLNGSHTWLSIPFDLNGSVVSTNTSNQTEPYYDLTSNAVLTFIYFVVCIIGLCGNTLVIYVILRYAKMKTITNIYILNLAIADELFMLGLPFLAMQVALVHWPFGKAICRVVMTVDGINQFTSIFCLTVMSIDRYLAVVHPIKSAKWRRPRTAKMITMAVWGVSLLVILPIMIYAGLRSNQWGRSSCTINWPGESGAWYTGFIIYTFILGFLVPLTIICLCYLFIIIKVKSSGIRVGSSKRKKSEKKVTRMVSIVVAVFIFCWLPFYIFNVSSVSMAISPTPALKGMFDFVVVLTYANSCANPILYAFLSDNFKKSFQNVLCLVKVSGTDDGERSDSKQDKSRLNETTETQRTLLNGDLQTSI
Sequence of human somatostatin receptor subtype hSSTR-3 (human) (P32745 whole entry): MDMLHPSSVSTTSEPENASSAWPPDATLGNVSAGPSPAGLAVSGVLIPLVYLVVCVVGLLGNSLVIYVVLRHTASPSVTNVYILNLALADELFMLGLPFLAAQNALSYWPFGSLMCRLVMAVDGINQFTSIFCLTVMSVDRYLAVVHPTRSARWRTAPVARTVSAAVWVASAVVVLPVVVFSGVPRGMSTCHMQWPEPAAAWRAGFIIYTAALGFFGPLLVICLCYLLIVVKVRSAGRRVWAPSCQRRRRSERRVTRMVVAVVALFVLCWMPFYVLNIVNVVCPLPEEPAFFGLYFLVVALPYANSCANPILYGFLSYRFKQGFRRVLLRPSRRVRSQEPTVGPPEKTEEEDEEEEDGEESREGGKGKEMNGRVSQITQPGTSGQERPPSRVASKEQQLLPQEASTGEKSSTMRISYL

B1: Camptothecin-rvGly-Suc-(Doc)4-Aepa-Apn-Asn-Gln-Trp-Ala-Val-β-Ala-His-Leu-Nle-NH2 (peptide)
peptide: Camptothecin-[rvGly][Suc][AEEA][AEEA][AEEA][AEEA][Pipz(1-CH2CO,4-CH2CH2NH)][Apn]NQWAV[βAla]HL[Nle]-NH2
modifications: reading uncertain; also: printed as Camptothecin-rvGly-Suc-(Doc)4-Aepa-Apn-Asn-Gln-Trp-Ala-Val-β-Ala-His-Leu-Nle-NH2
B1 had a Ki in assay [1] of 4.07 nM.

B2: Camptothecin-rvGly-Suc-(Doc)4-Aepa-D-Ser-D-Tyr-Gln-Trp-Ala-Val-β-Ala-His-Leu-Nle-NH2 (peptide)
peptide: {Camptothecin-rvGly-Suc-AEEA-AEEA-AEEA-AEEA-Pipz(1-CH2CO,4-CH2CH2NH)}-[dS][dY]QWAV[βAla]HL[Nle]-NH2
modifications: reading uncertain; also: printed as Camptothecin-rvGly-Suc-(Doc)4-Aepa-D-Ser-D-Tyr-Gln-Trp-Ala-Val-β-Ala-His-Leu-Nle-NH2
On to B2, for which the Ki in assay [1] turned out to be 3.96 nM.

Consider {Camptothecin-rvGly-Glut-AEEA-AEEA-AEEA-AEEA-AEEA-AEEA}-K[dY][dY]C[Tyr(3-I)][dW]K[Abu]CT-NH2 (disulfide 4-9; reading uncertain) [Camptothecin-rvGly-Glut-(Doc)6-Lys-D-Tyr-D-Tyr-c(Cys-3-(I)Tyr-D-Trp-Lys-Abu-Cys)-Thr-NH2], for which the Ki in assay [2] amounted to 0.36 nM; in assay [3], 125 nM; in assay [4], 3 nM.

With {Camptothecin-rvGly-Glut-AEEA-AEEA-AEEA-AEEA}-K[dY][dY]CFF[dW]KTC-NH2 (disulfide 4-10; reading uncertain) [Camptothecin-rvGly-Glut-(Doc)4-Lys-D-Tyr-D-Tyr-c(Cys-Phe-Phe-D-Trp-Lys-Thr-Cys)-NH2], the Ki is 9.38 nM in assay [2] and 481 nM in assay [4].

In assay [1], Camptothecin-[rvGly][Suc][AEEA][AEEA][AEEA][AEEA][Pipz(1-CH2CO,4-CH2CH2NH)][Nle]QWAV[βAla]HL[Nle]-NH2 [Camptothecin-rvGly-Suc-(Doc)4-Aepa-Nle-Gln-Trp-Ala-Val-β-Ala-His-Leu-Nle-NH2] displayed a Ki of 4.57 nM.

The molecule Camptothecin-[rvGly][Suc][AEEA][AEEA][AEEA][AEEA][Pipz(1-CH2CO,4-CH2CH2NH)][Ahx]QWAV[βAla]HL[Nle]-NH2 [Camptothecin-rvGly-Suc-(Doc)4-Aepa-Ahx-Gln-Trp-Ala-Val-β-Ala-His-Leu-Nle-NH2] had a Ki in assay [1] of 1.9 nM.

B3: Camptothecin-rvGly-Suc-(Doc)4-Aepa-Gaba-D-Ser-D-Tyr-Gln-Trp-Ala-Val-β-Ala-His-Leu-Nle-NH2 (peptide)
peptide: {Camptothecin-rvGly-Suc-AEEA-AEEA-AEEA-AEEA-Pipz(1-CH2CO,4-CH2CH2NH)}-[GABA][dS][dY]QWAV[βAla]HL[Nle]-NH2
modifications: reading uncertain; also: printed as Camptothecin-rvGly-Suc-(Doc)4-Aepa-Gaba-D-Ser-D-Tyr-Gln-Trp-Ala-Val-β-Ala-His-Leu-Nle-NH2
notes: Bombesin analog conjugate
As to B3, the Ki in assay [5] was 4.82 nM.

Molecule Camptothecin-[rvGly][Suc][AEEA][AEEA][AEEA][AEEA][Pipz(1-CH2CO,4-CH2CH2NH)][GABA]NQWAV[βAla]HL[Nle]-NH2 [Camptothecin-rvGly-Suc-(Doc)4-Aepa-Gaba-Asn-Gln-Trp-Ala-Val-β-Ala-His-Leu-Nle-NH2] registered a Ki in assay [1] of 7.65 nM.

B4: Camptothecin-rvGly-Suc-(Doc)4-Lys-D-Ser-D-Tyr-Gln-Trp-Ala-Val-β-Ala-His-Leu-Nle-NH2 (peptide)
peptide: {Camptothecin-rvGly-Suc-AEEA-AEEA-AEEA-AEEA}-K[dS][dY]QWAV[βAla]HL[Nle]-NH2
modifications: reading uncertain; also: printed as Camptothecin-rvGly-Suc-(Doc)4-Lys-D-Ser-D-Tyr-Gln-Trp-Ala-Val-β-Ala-His-Leu-Nle-NH2
notes: Bombesin analog conjugate
For the molecule B4, the Ki in assay [5] turned out to be 1.45 nM.

In turn, Camptothecin-[rvGly][Suc][AEEA][AEEA][AEEA][AEEA][Pipz(1-CH2CO,4-CH2CH2NH)]L[GABA]QWAV[βAla]HL[Nle]-NH2 [Camptothecin-rvGly-Suc-(Doc)4-Aepa-Leu-Gaba-Gln-Trp-Ala-Val-β-Ala-His-Leu-Nle-NH2] showed a Ki in assay [1] of 18.2 nM.

B5: Camptothecin-rvGly-Suc-(Doc)4-Arg-D-Ala-D-Tyr-Gln-Trp-Ala-Val-β-Ala-His-Leu-Nle-NH2 (peptide)
peptide: {Camptothecin-rvGly-Suc-AEEA-AEEA-AEEA-AEEA}-R[dA][dY]QWAV[βAla]HL[Nle]-NH2
modifications: reading uncertain; also: printed as Camptothecin-rvGly-Suc-(Doc)4-Arg-D-Ala-D-Tyr-Gln-Trp-Ala-Val-β-Ala-His-Leu-Nle-NH2
notes: Bombesin analog conjugate
As to B5, in assay [5], affinity was put at a Ki of 1.1 nM.

With {Camptothecin-rvGly-Glut-AEEA-AEEA-AEEA-AEEA}-K[dY][dY]C[Tyr(3-I)][dW]K[Abu]CT-NH2 (disulfide 4-9; reading uncertain) [Camptothecin-rvGly-Glut-(Doc)4-Lys-D-Tyr-D-Tyr-c(Cys-3-(I)Tyr-D-Trp-Lys-Abu-Cys)-Thr-NH2], the Ki was found to be 0.1 nM in assay [2], 94 nM in assay [3] and 3.86 nM in assay [4].

The values above are taken from US20100113367A1 (IPSEN PHARMA S A S, published 2010).
